Molecular target: T1, human CXCR2 receptor (Homo sapiens, UniProt P25025)
T1 construct: expressed in transfected cells; host or cells: HEK293, stably transfected geneticin-resistant clones, vector RcCMV; membranes purified by sucrose gradient
T1 sequence (P25025 1-360): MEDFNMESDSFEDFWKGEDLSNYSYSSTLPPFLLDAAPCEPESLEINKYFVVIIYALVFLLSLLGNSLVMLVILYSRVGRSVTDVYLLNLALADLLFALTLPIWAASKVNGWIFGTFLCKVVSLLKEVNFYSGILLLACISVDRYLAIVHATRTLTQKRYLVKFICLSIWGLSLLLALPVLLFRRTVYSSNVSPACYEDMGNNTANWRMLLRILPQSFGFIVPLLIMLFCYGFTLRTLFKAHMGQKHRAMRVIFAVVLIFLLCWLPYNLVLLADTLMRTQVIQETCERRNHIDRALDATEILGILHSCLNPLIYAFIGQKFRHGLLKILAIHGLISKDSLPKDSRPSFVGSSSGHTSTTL
Assay: Potency (pIC50) ligand binding assay, inhibition of [125I]IL-8 binding
Conditions: human CXCR2 membranes; read-out: Kd (equilibrium dissociation constant) determined for IL-8
Experimental: Potency (pIC50)—Ligand Binding Assay
The potency of antagonists at the human CXCR2 receptor was determined in vitro by quantifying their ability to inhibit specific binding of the CXCR2 radioligand, [^125I]interleukin-8 (IL-8), from membranes of HEK293 cells transfected with the human recombinant CXCR2 receptor.
Commercially sourced materials were obtained as follows: U-bottomed 96-well plates (3799) and 225 cm^2 vented cap culture flasks (3001) from Costar, Corning, Kent, UK. Multiscreen filter plates (0.45 μm; MAHV N45 50), vacuum manifold and pump (XF54 230 50) from Millipore, Watford, UK. N-[2-hydroxyethyl]piperazine-N′-[2ethanesulphonic acid] (HEPES; H-3375), ethylene diamine-tetraacetic acid (EDTA; E1644), magnesium chloride (M-9272), gelatin (G9382), dithiothreitol (DTT; D06052), sodium chloride (S3160/63), sodium hydroxide (B6506), bacitracin (B0125), inactivated foetal calf serum (FCS; CR0848) and DMSO Fluka Chemika (41648) from Sigma, Poole, UK. MicroScint-O (6013611) Packard BioScience, Pangboume, UK. Complete protease inhibitor cocktail tablets (1836145) from Boehringer s Mannheim, GmbH, Germany. Human recombinant [^125I]IL-8 74 TBq/mmol, 0.712 MBq/ml (IM249) from Amersham, Horsham UK. All other tissue culture reagents were purchased from Invitrogen, Paisley, Scotland, UK. All other chemical reagents were analytical grade from Fisher Scientific, Loughborough, UK
HEPES-buffered salt solution pH 7.4 containing HEPES (10 mM), potassium chloride (2.7 mM), sodium chloride (137 mM), potassium hydrogen phosphate (0.4 mM), calcium chloride (1.8 mM), magnesium chloride (1 mM), gelatin (0.1% (w/v)) and bacitracin (100 μg/ml).
HEPES-buffered Tyrode's solution pH 7.4 containing HEPES (10 mM), potassium chloride (2.7 mM), sodium chloride (137 mM), potassium hydrogen phosphate (0.4 mM), glucose (11 mM).
Hypotonic buffer: 3:1 mix of water: HEPES-buffered Tyrode's solution.
HEK293 cells were transfected with human CXCR2 (EMBL L19593) cDNA, previously cloned into the eukaryotic expression vector RcCMV. Cloned cell-lines were generated from stably-transfected geneticin-resistant populations. Cells were routinely grown to approximately 80% confluence in DMEM medium containing 10% (v/v) foetal calf serum and glutamine (2 mM) in a humidified incubator at 37° C., 5% CO2. Cells were harvested from flasks using Accutase™ at 37° C. for 3 to 5 minutes and resuspended on ice in hypotonic buffer at a density of 2×10^7 cells/mL. Membranes were prepared on ice by homogenisaton using a polytron tissue homogenizer set at 22000 rpm. The membrane fraction was purified by sucrose gradient centrifugation where homogenised cells were layered onto 41% (w/v) sucrose solution then centrifuged at 140000 g for 1 hour at 4° C. The membrane fraction was harvested at the interface, diluted 4-fold with HEPES-buffered Tyrode's solution and centrifuged at 100000 g for 20 minutes at 4° C. The membrane pellet was re-suspended at 1×10^8 cell equivalents/mL in HEPES-buffered Tyrode's solution and subsequently stored in aliquots at −80° C. All buffers used for membrane preparation and storage were made in the presence of 1 mM DTT and Complete Protease Inhibitor™ cocktail tablets, made up to manufacturers instructions.
Assays were performed in HEPES-buffered salt solution in 96-well plates. [^125I]IL-8 was used at a final concentration of 0.06 nM, pre-diluted from a 9.6 nM stock. The final DMSO concentration in the assay was 1% (v/v). Test compounds were prepared by serial dilution in DMSO followed by a ten-fold dilution into HEPES-buffered salt solution to give a working solution containing compound and 10% DMSO. The control for total binding (B0) of [^125I]IL-8 was determined in the absence of compound. The control for non-specific binding (NSB) was determined by measuring [^125I]IL-8 binding in the presence of (1R)-5-[[(3 -chloro-2-fluorophenyl)methyl]thio]-7-[[2-hydroxy-1-methylethyl]amino]thiazolo[4,5-d]pyrimidin-2(3H)-one dihydrate, sodium salt at 1 μM final concentration. […]

Kd: 1.2 nM
Substance: IL-8: interleukin-8, CXCR2 ligand, used as the human recombinant [125I] radioligand

Reference: US20100016275A1, “NOVEL COMPOUND 395” (priority 2008, published 2010)
